The supplement of paper PMC9876800

Tested on: peptide library, one residue held at a place counted from the S/T acceptor
Assay: relative phosphorylation of the sub-library (ratio to the mean residue at this position); higher = residue favoured
Details: human
Summary of the method: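 Purified recombinant kinases, either human or orthologue constructs, were incubated in 384-well plates with biotinylated degenerate peptide sub-libraries. Each sub-library fixed one residue at one position around a central Ser/Thr. Peptides at 50 μM and 50 μM ATP spiked with γ-32P-ATP were used for 90 min under kinase-specific conditions, and spots on streptavidin membranes were phosphorimaged and quantified by densitometry. Relative sub-library phosphorylation is expressed as a ratio to the mean residue at that position.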

TGFBR2, construct: aa190-end, sequence (P37173 190-567, looked up): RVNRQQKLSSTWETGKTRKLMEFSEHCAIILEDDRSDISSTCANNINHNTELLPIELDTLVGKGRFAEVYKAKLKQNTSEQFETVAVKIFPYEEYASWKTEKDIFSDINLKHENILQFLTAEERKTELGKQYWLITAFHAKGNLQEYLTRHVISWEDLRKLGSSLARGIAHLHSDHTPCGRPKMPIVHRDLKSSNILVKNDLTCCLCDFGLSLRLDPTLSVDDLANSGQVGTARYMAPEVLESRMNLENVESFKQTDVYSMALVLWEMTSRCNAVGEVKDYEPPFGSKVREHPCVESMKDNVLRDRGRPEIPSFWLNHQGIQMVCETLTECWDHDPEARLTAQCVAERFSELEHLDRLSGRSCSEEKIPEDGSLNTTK

TGFBR2, construct: aa190-end (from UniProt P37173)
relative phosphorylation
Details	M fixed	N fixed	P fixed	Q fixed	R fixed	V fixed	W fixed	Y fixed	pThr fixed	pTyr fixed
at +1	–	0.801	0.271	1.36	0.834	1.36	0.946	1.14	1.55	0.53
at +2	–	0.891	0.89	1.08	1.36	1.18	1.29	1.02	0.529	0.432
at +3	–	0.941	1.12	0.778	1.32	1.01	1.18	1.15	0.488	0.685
at +4	–	0.85	1.33	0.932	1.23	0.964	1.47	1.06	0.539	0.483
at -1	1.34	0.812	1.1	1.01	0.911	1.11	1.19	1.49	0.594	0.951
at -2	0.484	0.877	0.365	0.598	0.886	0.332	0.419	0.41	1.2	0.441
at -3	0.907	0.982	1.09	0.985	1.72	0.794	1.12	0.973	0.884	0.778
at -4	0.872	1.08	1	0.898	1	0.897	1.59	1.02	0.863	0.63
at -5	0.809	0.908	0.95	0.848	1.17	0.933	1.58	1.13	0.765	0.746
